Assay results: US11988675B2, “Methods for quantifying frataxin activity” (Larimar Therapeutics, Inc., priority 2019, dated 2024)
Where two headings read alike, the source gives them in different places.

Tests used:
FXN fusion protein = molecular target: T1, FXN fusion protein (Homo sapiens, UniProt Q16595); test: HQ assay in the presence of NADH or NADPH (FIG. 3, Panel B); assay type: biochemical; conditions: added to the assay with Fe^3+
T1 sequence (Q16595 with tags, fused parts or gaps): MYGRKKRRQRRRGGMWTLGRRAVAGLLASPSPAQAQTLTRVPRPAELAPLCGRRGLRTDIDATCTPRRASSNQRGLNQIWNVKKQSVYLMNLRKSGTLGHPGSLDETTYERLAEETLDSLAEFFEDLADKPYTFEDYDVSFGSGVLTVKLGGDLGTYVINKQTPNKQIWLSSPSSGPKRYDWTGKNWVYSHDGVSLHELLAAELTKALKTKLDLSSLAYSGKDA
Experimental: Redox activity of the FXN fusion protein was also measured in the presence of NADPH and NADH.

[1] = Chemical stability study: HQ assay after chemical stress; assay type: biochemical
Experimental: The goal of this experiment was to evaluate stability to chemical stress of an exemplary FXN fusion protein by evaluating the activity of the exemplary FXN fusion protein after its exposure to chemical stressors that may trigger protein denaturation and/or degradation of the FXN fusion protein.
Briefly, study control was stored at 2-8° C. over the course of the study. Each treatment was conducted as follows:
i. Acid treatment: 1N HCl was added to the solution containing FXN fusion protein until a pH≤4 was reached. The sample was kept at 37° C. for 2 days, and then the buffer exchanged for the buffer of the DS formulation. The sample was stored at 2-8° for the remainder of the study.
ii. Alkaline treatment: 1M Tris base was added to the solution containing FXN fusion protein until a pH≥10 was reached. The sample was kept at 37° C. for 2 days, and then the buffer was exchanged for the buffer of the DS formulation. The sample was stored at 2-8° C.
iii. Acid and Base control: solution containing FXN fusion protein was stored at 37° C. for 2 days, and then stored at 2-8° C.
iv. Oxidation stress treatment: exemplary FXN fusion protein was incubated in the presence of 0.05% hydrogen peroxide at 37° C. for 2 hours and then stored at 2-8° C.
v. Oxidation control: exemplary FXN fusion protein was incubated at 37° C. for 2 hours and then stored at 2-8° C.
vi. Heat stress treatment: exemplary FXN fusion protein was incubated at 50° for 2 hours then stored at 2-8° C.
All samples were analyzed for appearance, pH, protein quantification (by A280), size-exclusion ultra-performance liquid chromatography (SE-UPLC), reversed-phase high-performance liquid chromatography (RP-HPLC), ion-exchange high-performance liquid chromatography (IE-HPLC), reduced capillary electrophoresis sodium dodecyl sulfate (rCE-SDS), non-reduced capillary electrophoresis sodium dodecyl sulfate (nrCE-SDS), and free thiol (data not shown). The concentration of FXN fusion protein was determined by Western blot, and redox activity was determined using the HQ assay as described above.

[2] = in the absence of Fe^3+; 10 μM FXN fusion protein, 10 μM HQ, 5 μM H2DCF
Experimental: In another experiment, the effect of the presence of Fe^3+ ions on the activity of an exemplary FXN fusion protein was studied. In this experiment, the kinetics of ROS generated over time was measured in assay mixtures containing 10 μM exemplary FXN fusion protein, 10 μM HQ, and 5 μM H2DCF. One assay mixture also contained 1 mM deferoxamine, an iron chelator.

FDRA mouse model = test: Treatment of an FDRA mouse model; assay type: in vivo; conditions: data not shown
Description: (§1) FXN fusion protein having the amino acid sequence of SEQ ID NO: 12 comprises a cell penetrating peptide, HIV-TAT (SEQ ID NO: 4), and a full length hFXN (SEQ ID NO: 1), linked through a linker at the N-terminus of the hFXN.

[3] = Description: The goal of the first part of the experiment was to validate performance of the HQ assay at the conditions used for the HTS. To this end, the HQ assay was characterized by measuring statistical parameters, such as signal-to-background (S/B) ratio, Z′ factor (which is a measure of the statistical robustness of the assay readout), and intra- and inter-plate variability. To this end, two 96-well plates were each split into 9 sections: 4 sections in each plate contained an exemplary FXN fusion protein at the concentration of 10 μM (high control); 4 sections contained the exemplary FXN fusion protein at the concentration of 0.5 μM (low control); and 1 section contained only the assay mix without the FXN fusion protein (blank control).
H2DCF was activated by incubating in the dark 1 mL of 1 mM H2DCF-DA in 20 mL of 0.01 M NaOH for 30 minutes while stirring. Subsequently, 75 mL of 33 mM NaH2PO4 was added to the activation mixture to yield a final H2DCF concentration of 10 μM. This solution was stored at 4° C. and protected from light until use. The assay mix in each well contained 50 mM Tris-HCL (pH 8.0), 50 μM HQ, 1 μM MnCl2, 0.5 μM activated H2DCF and the exemplary FXN fusion protein at the concentration of 10 μM (high control), 0.5 μM (low control) and 0 μM (blank control). After the assay mix was added to the plate, the plate was immediately placed in the plate reader, and the kinetic read was initiated. The plate reader settings were as follows: 45-minute kinetic scan with a Fluorescent read (excitation 482/20, emission 530/25, and a gain of 50) every minute with a 3 second shake in between reads. Maximum initial velocity (Vi) was determined for each well by measuring the fastest change in arbitrary fluorescence unit (AFU) over 5 data points. The statistical parameters, such as signal-to-background (S/B) ratio, Z′ factor, and intra- and inter-plate variability were calculated to characterize the assay performance.

[4] = Temperature stability study: HQ assay after one month storage; assay type: biochemical
Experimental: The goal of this experiment was to evaluate thermal stability of an exemplary FXN fusion protein by evaluating the activity of the FXN fusion protein after short-term storage (one month) at different temperatures.
(SPL1), 2-4° C. (SPL2) and 25° C. (SPL3), as compared to the DS control. […] (SPL1), 2-4° C. (SPL2) and 25° C. (SPL3), as compared to the DS control.

[5] = in the presence and absence of metal ions; FIG. 1
Experimental: Protocol for Hydroquinone (HQ) Reduction Assay
a. 1 ml of 1 mM H2DCFDA (in DMSO) is added to 20 mL of 0.01 M NaOH working solution to generate the activating solution. The solution is stirred for 30 minutes at room temperature in the dark.
b. 79 mL of 33 mM NaH2PO4 solution is added to the activating solution to yield a final concentration of 10 μM H2DCF.
b. Excitation and emission reading of the plate is performed every minute, or as required, with a spectrometer set for the following parameters: excitation at 485/20, emission at 528/20, optics from the top, a read height of 1 mm, and a gain of 50.
To each well add: • i. 10 μL of 20× Hydroquinone (to 20 μM final concentration) • ii. 10 μL of 20×Mn^2 (5 μM final concentration)
b. Tris Buffer Addition • i. FXN protein sample well: 168 μL • ii.
b. 10 μL of H2DCF (10 μM working solution) is added to every well (except the DCF standard curve) to arrive at a final concentration of 0.5 μM H2DCF.
b. […] Velocity calculated on 5 points; • 3. Relative fluorescence units (RFU) per minute. • ii. Vi generated from the fluorescence scanner is plotted on a scatter plot • 1. […]
c. […] The line should go through 0,0, and the slope recorded. […]
Generation of ROS, i.e., superoxide, was detected using an ROS detector compound, such as for example, 2′,7′-dichlorodihydrofluorescein (H2DCF), and was followed kinetically, as shown in Panel A of FIG. 1. […]

[6] = 10 μM FXN fusion protein, 5 μM HQ, 5 μM Fe(III) sulfate
Experimental: The goal of this experiment was to evaluate pH dependence of HQ-dependent superoxide generating activity of an exemplary FXN fusion protein. FXN fusion protein of SEQ ID NO: 12 was used in this experiment. Specifically, kinetics of superoxide generation by an exemplary FXN fusion protein was evaluated at pHs ranging from 7.0 to 9.0. Each reaction mixture contained 5 μM HQ, 5 μM Fe(III) sulfate, 0.05 μM H2DCF and 10 μM exemplary FXN fusion protein in 50 mM Tris-HCL at pH of 7.0, 7.4, 7.8, 8.0, 8.2, 8.5 and 9.0.
The assay plate was placed in the plate reader and the kinetic read began immediately after all assay ingredients were mixed together. The plate reader settings were as follows: 2-hour kinetic scan with a Fluorescent read (excitation 485/20, emission 528/25, and a gain of 50) every 5-minutes with a 10 second shake between reads. Maximum initial velocity (Vi) was determined for each well by measuring fastest change in arbitrary fluorescence unit (AFU) over 5 data points.

FXN-deficient cell lines = test: Genomic footprint of FXN-deficient cell lines before and after FXN fusion protein treatment; assay type: cell-based; conditions: data not shown
Description: as §1

[7] = Acid and alkaline control: 37° C. for 2 days
[8] = Acid stress: pH ≤4, at 37° C. for 2 days
[9] = Alkaline stress: pH ≥10, at 37° C. for 2 days
[10] = Heat stress: 50° C. for 2 hours
[11] = Oxidation control: 37° C. for 2 hours
[12] = Oxidation: 0.05% peroxide at 37° C. for 2 hours
[13] = Study control: 2-8° C. for 2 hours
[14] = Drug substance (DS) control (stored at −80° C.)

NC(=O)C1=CN([C@@H]2O[C@H](COP(=O)(O)OP(=O)(O)OC[C@H]3O[C@@H](n4cnc5c(N)ncnc54)[C@H](O)[C@@H]3O)[C@@H](O)[C@H]2O)C=CC1 [NADH]
effect on ROS production / redox activity of the FXN fusion protein (FXN fusion protein): did not affect the redox activity

NC(=O)C1=CN([C@@H]2O[C@H](COP(=O)(O)OP(=O)(O)OC[C@H]3O[C@@H](n4cnc5c(N)ncnc54)[C@H](OP(=O)(O)O)[C@@H]3O)[C@@H](O)[C@H]2O)C=CC1 [NADPH]
effect on ROS production / redox activity of the FXN fusion protein (FXN fusion protein): significantly diminished ROS production

B1: FXN fusion protein: cell penetrating peptide HIV-TAT linked through a linker to the N-terminus of full length hFXN; amino acid sequence of SEQ ID NO: 12 (protein)
chain: T1 sequence (Q16595 with tags, fused parts or gaps)
Result (% activity) [1, 7]: 79.7% | Vi [1, 7]: (1,730 Vi units) | Result (% activity) [1, 8]: 23.7% | Vi [1, 8]: (689 Vi units) | Result (% activity) [1, 9]: 0.02% | Vi [1, 9]: (0.7 Vi units) | Result (% activity) [1, 10]: 96.9% | Vi [1, 10]: (2,820 Vi units) | Result (% activity) [1, 11]: 59.5% | Vi [1, 11]: (1,730 Vi units) | Result (% activity) [1, 12]: 2.2% | Vi [1, 12]: (63 Vi units) | Result (% activity) [1, 13]: 100% | Vi [1, 13]: (2,908 Vi units) | stability of HQ activity to acid stress ([1]; acid stress): partly susceptible | stability of HQ activity to alkaline stress ([1]; alkaline stress): susceptible | stability of HQ activity to heat stress ([1]; heat stress applied for 2 hours): to a large extent, was resistant to heat stress | stability of HQ activity to oxidation stress ([1]; oxidation stress): susceptible | lag time to ROS generation [2]: approximately 2 hours | cardiomyopathic phenotype, for example cardiac contractility (FDRA mouse model): measurable improvement in the cardiomyopathic phenotype | Mean Vi ([3]; Plate 1, High control (10 µM FXN fusion protein)): 5390.0 | Mean Vi ([3]; Plate 1, Low control (0.5 μM FXN fusion protein)): 471.0 | Mean Vi ([3]; Plate 2, High control (10 μM FXN fusion protein)): 4995.1 | Mean Vi ([3]; Plate 2, Low control (0.5 μM FXN fusion protein)): 635.5 | Mean Vi ([3]; Plates 1 and 2 combined, High control (10 μM FXN fusion protein)): 5192.5 | Mean Vi ([3]; Plates 1 and 2 combined, Low control (0.5 μM FXN fusion protein)): 553.2 | Result (% activity) [4, 14]: 100.2% | Vi [4, 14]: (1126 Vi units) | Result (% activity) ([4]; SPL1: −60° C. for 1 month): 100% | Vi ([4]; SPL1: −60° C. for 1 month): (1123 Vi units) | Result (% activity) ([4]; SPL2: 2-4° C. for 1 month): 66.4% | Vi ([4]; SPL2: 2-4° C. for 1 month): (746 Vi units) | Result (% activity) ([4]; SPL3: 25° C. for 1 month): 23.4% | Vi ([4]; SPL3: 25° C. for 1 month): (263 Vi units) | activity in the HQ Assay after storage ([4]; storage in conditions other than −60° C. for one month): decreased activity | enzymatic activity, as measured by ROS generation over time [5]: possesses enzymatic activity | pH at which activity peaks ([6]; pH 7.0 to 9.0): about 8.5 | superoxide-generating activity (Vi) ([6]; pH of 7.4 or lower): almost no activity | expression of a set of genes before and after treatment (FXN-deficient cell lines): significant difference in the expression of a set of genes
